Data taken from patent US20120225437A1.

Target: Rat MBL-A (mannan-binding lectin A) (rat) (UniProt P19999)
Test: SPR, MBL immobilised, MASP-1 at 100 nM, equivalent concentrations of NaCl up to 550 mM

percent of maximal binding in the presence of NaCl (ionic strength control): > 60%
Substance: MASP-1ent, modified form of rat MASP-1 in which the zymogen cleavage site has been replaced by an enterokinase recognition site (DDDDK) (from UniProt Q8CHN8 25-704) (enzyme)
